Results as given in the supplement of paper PMC9732359.
± gives the uncertainty stated by the source.

Experiment: protein stability index of a GFP-peptide fusion (yeast GPS) (PSI 1-4); higher = more stable; sorted into four equal gates, so the index is relative within each strain
Summary of the method: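 Mid-log yeast cultures in leucine-free medium, carrying a pooled plasmid library, were sorted into four equal gates by their GFP/Cherry fluorescence ratio. Each plasmid expressed Cherry along with GFP fused upstream of a tiled 17-residue yeast protein peptide. Plasmids recovered from each gate were PCR-amplified and Illumina-sequenced, with reads assigned to strains by barcodes. The protein stability index was obtained by summing each gate's read frequency weighted by its gate number.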

| Sequence | protein stability index (doa10∆) | protein stability index (pdr5∆) | protein stability index (san1∆) | protein stability index (ubr1∆) |
| --- | --- | --- | --- | --- |
| AEYAQLLAKRLSERKAE [RPS6A] | 2.41 ± 0.051 | 2.11 ± 0.048 | 2.16 ± 0.082 | 2.28 ± 0.038 |
| AFADRLGQYVQAHTLYN [PRE10] | 2.22 ± 0.085 | 1.95 ± 0.066 | 1.74 ± 0.12 | 2.03 ± 0.11 |
| AFAFCIPVYCFSHPAHQ [YCG1] | 1.64 ± 0.045 | 1.81 ± 0.044 | 1.76 ± 0.059 | 1.81 ± 0.045 |
| AFGFVDRTLPHFSKDDY [RPO21] | 2.81 ± 0.068 | 3.17 ± 0.05 | 2.85 ± 0.052 | 3.16 ± 0.035 |
| AFGGLNFGGGNNTTPSS [YJL041W/NSP1] | 1.32 ± 0.061 | 1.29 ± 0.064 | 1.46 ± 0.087 | 1.21 ± 0.13 |
| AFIFGLQDELKELQLEK [SMC3] | 3.23 ± 0.12 | 3.47 ± 0.11 | 3.11 ± 0.12 | 3.54 ± 0.19 |
| AFLSFLAYRNYWTQYLG [YJL039C/NUP192] | 1.33 ± 0.057 | 1.26 ± 0.04 | 1.26 ± 0.11 | 1.26 ± 0.068 |
| AFSSVEHIIRDVHNGYI [COB] | 3.16 ± 0.23 | 3 ± 0.26 | 3.37 ± 0.24 | 2.99 ± 0.16 |
| AFVEFGASVIAGGQRIV [SWP82] | 2.21 ± 0.13 | 2.35 ± 0.1 | 2.02 ± 0.1 | 2.07 ± 0.085 |
| AGAGEANGTVVSFIKNG [MTR3] | 1.79 ± 0.16 | 2.53 ± 0.2 |  | 2.21 ± 0.11 |
| AGALNLASPEVKVHMDS [DIS3] | 3.06 ± 0.083 | 3.4 ± 0.069 | 2.99 ± 0.07 | 3.04 ± 0.052 |
| AGASPMVNTQQPIVTGT [PRE4] | 2.67 ± 0.17 | 2.67 ± 0.29 |  |  |
| AGGGESDSALILMYKGF [UBP6] | 3.29 ± 0.091 | 3.45 ± 0.08 | 3.26 ± 0.12 | 3.35 ± 0.063 |
| AGKFPTPVSHNDDLYGK [RPL1A] | 2.26 ± 0.041 | 2.62 ± 0.056 | 2.21 ± 0.057 | 2.45 ± 0.043 |
| AGKSLVSKSEPKFFLGE [QCR2] | 3.41 ± 0.09 | 3.31 ± 0.067 | 3.08 ± 0.054 | 3.32 ± 0.047 |
| AGLEITSDNLLTITKAA [RPP1B] | 2.42 ± 0.051 | 2.55 ± 0.048 | 2.78 ± 0.064 | 2.65 ± 0.046 |
| AGMTTIVRDLDRPGSKF [RPL3] | 2.39 ± 0.11 | 3.24 ± 0.18 | 2.95 ± 0.08 | 3.15 ± 0.11 |
| AGNSQITSGGFLLKAYI [SRB5] | 2.11 ± 0.1 | 2.53 ± 0.097 | 2.24 ± 0.17 | 2.92 ± 0.11 |
| AHAIDQMTWRQWLNNAL [POP8] | 2.67 ± 0.065 | 2.6 ± 0.046 | 2.41 ± 0.055 | 2.58 ± 0.04 |
| AHIEKQSLDTIGGSDAA [RPO21] | 3.18 ± 0.097 | 3.25 ± 0.11 | 3.32 ± 0.12 | 2.95 ± 0.095 |
| AHLWQKIHESIVFDICQ [PRP8] | 2.56 ± 0.09 | 2.69 ± 0.11 | 2.27 ± 0.13 | 2.39 ± 0.098 |
| AIFPYQDPIFGSVLLTL [ECM29] | 1.69 ± 0.045 | 1.84 ± 0.057 | 1.29 ± 0.12 | 1.45 ± 0.044 |
| AIIYQRGKDGKLHVAAK [YGL100W/SEH1] | 3.25 ± 0.12 | 3.31 ± 0.1 | 2.9 ± 0.13 | 3.02 ± 0.18 |
| AIKDKLEQDLHFENAKV [YIL149C/MLP2] | 3.09 ± 0.066 | 3.29 ± 0.075 | 3.35 ± 0.069 | 3.16 ± 0.079 |
| AIMNCADNSGARNLYII [RPL23A] | 2.33 ± 0.089 | 3.14 ± 0.17 | 2.52 ± 0.14 | 3.1 ± 0.17 |
| AINLMGVKNNLLTPKSG [RPO31] | 3.11 ± 0.13 | 2.76 ± 0.12 | 2.76 ± 0.13 | 2.63 ± 0.11 |
